To fix the notation:
B1: doubly-phosphorylated wild-type rat ERK2 oxidized with H2O2 (sulfenylated on C159) (enzyme)
chain: MAAAAAAGPEMVRGQVFDVGPRYTNLSYIGEGAYGMVCSAYDNLNKVRVAIKKISPFEHQTYCQRTLREIKILLRFRHENIIGINDIIRAPTIEQMKDVYIVQDLMETDLYKLLKTQHLSNDHICYFLYQILRGLKYIHSANVLHRDLKPSNLLLNTTCDLKICDFGLARVADPDHDHTGFLTEYVATRWYRAPEIMLNSKGYTKSIDIWSVGCILAEMLSNRPIFPGKHYLDQLNHILGILGSPSQEDLNCIINLKARNYLLSLPHKNKVPWNRLFPNADSKALDLLDKMLTFNPHKRIEVEQALAHPYLEQYYDPSDEPIAEAPFKFDMELDDLPKEKLKELIFEETARFQPGYRS

The target in one experiment is T1, FITC-labeled pepHePTP.
T1 peptide: {FITC}-RLQERRGSNVALMLDV
Kind of experiment: fluorescence polarisation. On the technique in general: Polarisation of emitted light reports the rotation of a fluorescent probe.

Experiment [1] concerns the target B1. Kind of experiment: SPR. On the technique in general: SPR reads the build-up and loss of mass on a sensor chip optically.

Where no end group is shown, it is not given here. The star is where a group is joined. FITC = O=C1OC2(c3ccc(O)cc3Oc3cc(O)ccc32)c2ccc(NC(=S)*)cc21

With B1, the “fold increase in KD,app against untreated ERK2” value in the experiment with FITC-labeled pepHePTP was about 100 fold.

B2: Lig-D peptide (peptide)
peptide: Ac-FQRKTLQRRNLKGLNLNL-NH2
In the case of B2, in experiment [1], the Kd (usually the equilibrium constant for the complex coming apart) came out at 58 µM.

The values are drawn from paper PMC10514464 (iScience, 2023).
